The target in experiment [1] is T1, PCSK9 V domain (450-692 of SEQ ID NO: 3) (human, UniProt Q8NBP7 450-692).
T1 construct: also called v-domain PCSK9
T1 chain: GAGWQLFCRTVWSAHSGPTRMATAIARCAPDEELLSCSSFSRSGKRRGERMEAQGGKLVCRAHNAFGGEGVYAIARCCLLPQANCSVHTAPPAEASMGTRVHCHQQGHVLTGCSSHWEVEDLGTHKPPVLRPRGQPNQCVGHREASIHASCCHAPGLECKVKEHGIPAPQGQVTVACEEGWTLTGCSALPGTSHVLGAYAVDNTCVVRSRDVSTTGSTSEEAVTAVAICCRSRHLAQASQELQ
The experiment in a line: domain binding ELISA. (In general: An ELISA detects its analyte on a solid surface through an enzyme-linked reagent.)

Experiment [2] addresses T2, mouse PCSK9 (mouse, UniProt Q80W65 35-694, limits assumed).
T2 construct: biotinylated, tag not mentioned, in the hybridoma screen; also called mPCSK9-8xHIS; mPCSK9
Kind of experiment: KinExA solution equilibrium.

Experiment [3] concerns the target T2, mouse PCSK9. Kind of experiment: BIAcore, antibody immobilised, pH 7.4. (In general: Surface plasmon resonance follows binding to a sensor surface in real time, without labels.)
For experiment [4], the target named is T3, human PCSK9 (proprotein convertase subtilisin kexin type 9) (human, UniProt Q8NBP7 31-692).
T3 construct: Used untagged, biotinylated, V5/His- or His-tagged depending on the assay; also called hPCSK9; huPCSK9
Kind of experiment: BIAcore kinetic assay 1, His-tagged huPCSK9 captured, pH 6.0.

Experiment [5] deals with T3, human PCSK9 (proprotein convertase …). The experiment in a line: BIAcore solution equilibrium, pH 5.5.
Experiment [6] has the same target. Kind of experiment: BIAcore kinetic assay 1, His-tagged huPCSK9 captured, pH 7.4.
Experiment [7] has the same target. The experiment in a line: BIAcore solution equilibrium, pH 7.4; pH 7.4.
Experiment [8] shares this target. Kind of experiment: BIAcore solution equilibrium, pH 6.0.
The target is the same in experiment [9]. The experiment in a line: BIAcore kinetic assay 1, His-tagged huPCSK9 captured, pH 5.5.
Experiment [10] deals with T2, mouse PCSK9. Kind of experiment: BIAcore solution equilibrium.

By Kd is commonly meant the concentration at which binding is half-saturated. A higher Kd goes with lower affinity.

B1: 3C4 (antibody, V domains shown)
VH: QVQLQESGPGLVKPSQTLSLTCTVSGGSISSSDYYWSWIRQHPGKGLEWIGYIYYSGSTYYNPSLKSRITISVDTSKNLFSLKLSSVTAADTAVYYCARGGVTTYYYAMDVWGQGTTVTVSS
VL: DIQMTQSPSSLSASVGDRVTITCRASQRISNYLSWYLQKPGIAPKLLIYAASSLQSGVPSRFSGSGSGTDFTLTISSLQSEDFATYYCQQSYSTPLIFGGGTKVEIK
Turning to B1, the binding result in experiment [1] is given as “binds”.

B2: 16F12, anti-PCSK9 huIgG4 (antibody, V domains shown)
VH: QVHLVESGGGVVQPGRSLRLSCAASGFTFNSFGMHWVRQAPGKGLEWVALIWSDGSDEYYADSVKGRFTISRDNSKNTLYLQMNSLRAEDTAVYYCARAIAALYYYYGMDVWGQGTTVTVSS
VL: QSVLTQPPSVSAAPGQKVTISCSGSSSNIGNNFVSWYQQLPGTAPKLLIYDYNKRPSGIPDRFSGSKSGTSATLGITGLQTGDEADYYCGTWDSSLSAYVFGTGTRVTVLQ
notes: from hybridoma; also called 16F12 IgG4; 16F12.1
For B2, the Kd in [2] turned out to be 0.223 nM; in [3] it was 6.4 nM.

B3: 9C9 (antibody, V domains shown)
VH: EVQLVESGGGLVQPGGSLRLSCVVSGFTFSSYWMSWVRQAPGKGLEWVANIKQDGSEKYYVDSVKGRFTISRDNAKNSLYLQMNSLRAEDTAVYYCARESNWGFAFDIWGQGTMVTVSS
VL: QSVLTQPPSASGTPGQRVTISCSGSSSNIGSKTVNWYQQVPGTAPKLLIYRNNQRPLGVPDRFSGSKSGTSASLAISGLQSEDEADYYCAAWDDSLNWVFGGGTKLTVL
In the case of B3, the Kd in experiment [4] was 2.3 nM; in [5], 3.2 nM; in experiment [6], 0.56 nM; in experiment [7], 0.56 nM; in [8] it was 2.3 nM; in experiment [9], 3.2 nM.

B4: 21B12, anti-PCSK9 huIgG4 (antibody, V domains shown)
VH: QVQLVQSGAEVKKPGASVKVSCKASGYTLTSYGISWVRQAPGQGLEWMGWVSFYNGNTNYAQKLQGRGTMTTDPSTSTAYMELRSLRSDDTAVYYCARGYGMDVWGQGTTVTVSS
VL: QSALTQPASVSGSPGQSITISCTGTSSDVGGYNSVSWYQQHPGKAPKLMIYEVSNRPSGVSNRFSGSKSGNTASLTISGLQAEDEADYYCNSYTSTSMVFGGGTKLTVLQ
notes: from hybridoma; also called 21B12 IgG4; 21B12.1
B4: the Kd in experiment [3] was determined as 460 nM; in [10], 17 nM.

For the origin of these results see US20130072665A1 (Amgen, published 2013).
